Experimental data reported in the supplement of paper PMC9170038.

Tested on: MS2 coat protein
Test: apparent KD of MS2 coat protein; designed switch direction (-1 OFF switch, 1 ON switch): -1; higher = weaker reporter binding
Outline: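 On Illumina chips, designed RNA switches with common flanks were made by stalled E. coli RNA polymerase. Titrations with SNAP-549-labelled MS2 coat protein, doubling from 0.7 or 1.5 nM to 3 µM, were done with no input, with 200 uM small-molecule ligand, or with an oligonucleotide input. Apparent KD is the median per design over clusters, from curve fits of normalised cluster fluorescence.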

[1] = input ligand: microRNA oligo, concentration not stated
[2] = Eterna round: R95, input ligand: microRNA oligo, concentration not stated
[3] = Eterna round: R95, input ligand: FMN 200 uM
[4] = Eterna round: R95, input ligand: none

Sequence | apparent KD of MS2 coat protein (input ligand: FMN 200 uM) [µM] | apparent KD of MS2 coat protein [1] [µM] | apparent KD of MS2 coat protein (input ligand: none) [µM] | apparent KD of MS2 coat protein [2] [µM] | apparent KD of MS2 coat protein [3] [µM] | apparent KD of MS2 coat protein [4] [µM]
UACAUGAGGAUCACCCAUGUUUUGUCGUGUAUGGUACCCGUUUAGGAUAUCGUGUUAUUGGACCGCGAGAAGGAGAGUAUCAAU [Excl-NG3-LRO04] (Eterna round: R96, puzzle: Exclusion NG 3) | 0.0265 | 0.0228 | 0.0294 | – | – | –
AGGUAGUCAGGAUAUUAGUAGUAGCGGGAUAACGCUACUAUUGAGAAGGGACAUGAGGAUCACCCAUGUUUUGU [JR_Ex4_Sub067] (Eterna round: R97, puzzle: Exclusion 4) | 0.0547 | – | 0.0225 | – | – | –
AAGCUAUCUGUAGGAUAUACAACUGAUCUCGAGGUAGAAGGACAUCCAGUUACGCCAACAUGAGGAUCACCCAUGUGGAUCUUG [Eternabot solution 39] (Eterna round: R96, puzzle: Exclusion NG 1) | 0.0152 | 0.0129 | 0.0184 | – | – | –
AUAUUGUGAGGAUAUCAGGUGUGCUAGCGUACUGGUACAUCUGAGAAGGCACAUGAGGAUCACCCAUGUUUCUU [Mat - Exclusion 4 - Mod of JL - D42] (puzzle: Exclusion 4) | – | – | – | 0.0152 | – | –
AUCUUGUCAGGAUAUCUGACAAGUGACUUCGGUCACAGUUCAGAGAAGGUACAUGAGGAUCACCCAUGUAGAAC [Ex4-3: 39] (puzzle: Exclusion 4) | – | – | – | 0.0179 | – | –
AAAUCCGCUGAGGAUAUGAUGACUGAGAGGUCAUCAGAAGGCGGUACAUGAGGAUCACCCAUGUCUAUGGGCAA [Ex-6 Malc#29] (puzzle: Exclusion 6) | – | – | – | 0.317 | 0.313 | 0.636
UUAAUGUGAGGAUAUCAGGUGUGAUAGAGUAAUGGUAAAUCUGAGAAGGCACAUGAGGAUCACCCAUGUUCUUC [Mat - Exclusion 4 - Mod of JL - D58] (puzzle: Exclusion 4) | – | – | – | 0.0215 | – | –
GAUUGACAUGAGGAUCACCCAUGUGAGGAUAUCGGCCGGACCUUGUUAGCUUCCGUCGCGAGAAGGCGCAUAGG [Exclusion 1 V37] (puzzle: Exclusion 1) | – | – | – | 0.0399 | 0.0626 | 0.0332
CCGGAAUUGAAGGAUAUAGGAGUCGAUAGACACCUAGAAGGUCAGACAUGAGGAUCACCCAUGUGUCCUACCGG [Fiskers Ex 6 - 86] (puzzle: Exclusion 6) | – | – | – | 0.021 | 0.0274 | 0.0174
UUUAAGUCAGGAUAUCGUUAAUUUAAUAAAUAAAUUUAAUUCGAGAAGGGACAUGAGGAUCACCCAUGUAAUUU [Ex4 #1] (Eterna round: R97, puzzle: Exclusion 4) | 0.0455 | – | 0.0348 | – | – | –
GUAAUACAUGAGGAUCACCCAUGUAAGGAUAUGCUAGCGGUCGGCUGACUGACUGCUAGCAGAAGGUACAUGAU [Mat - Mod of JL D77] (puzzle: Exclusion 1) | – | – | – | 0.0872 | – | –
ACCUCUAUCUAGGAUAUUGGAACCCGGUUAAAACAAGAAGGAGAUACAUGAGGAUCACCCAUGUUAACGAUGGA [Ereseninso] (puzzle: Exclusion 6) | – | – | – | 0.0233 | 0.0975 | 0.0285
CUUCACCCACCAGAGCACACCCACAUACCUGCUCAGGUGACAUGAGGAUCACCCAUGUUUUUUGCCCGUCUUAUCUU [Tilevere] (puzzle: Sensor v3, turn-off variant 2) | – | – | – | 0.144 | 0.0316 | 0.0339
UCCAUCCCUGUGAGGAUAUCGUCCGUUUUUUGUUCCGAGAAGGCACAUGAGGAUCACCCAUGUUUUUUGUUUUU [JR_BMOE4_Sub077] (puzzle: Brourd's mod of Exclusion 4) | – | – | – | 0.0302 | – | –
AAUAACAGAGGAUAUACUAUUUUAUGUGUUUAUUGUUUUAAACAUGAGGAUCACCCAUGUAGAAGGCUGAUUAA [JMF 45] (puzzle: Exclusion 2) | – | – | – | 0.0619 | – | –
UGAGCUUCAGGAUAUACGUGACGUCCGUGAGGACGAAGGUUACAUGAGGAUCACCCAUGUAGAAGGGAAGUUCU [Mat - Exclusion 2 - JL Mod - D31] (Eterna round: R97, puzzle: Exclusion 2) | 0.0608 | – | 0.0316 | – | – | –
AGUACUAACACGAAAGUGUUAGUACAAUAAGCUUGUGAUACAUGAGGAUCACCCAUGUCCUCAUAAGCUCGUCUUAU [salish99_TOv2_r3_045] (Eterna round: R96, puzzle: Sensor v3, turn-off variant 2) | 0.0237 | 0.714 | 0.0242 | – | – | –

Sequence | apparent KD of MS2 coat protein (input ligand: FMN 200 uM) [µM] | apparent KD of MS2 coat protein [1] [µM] | apparent KD of MS2 coat protein (input ligand: none) [µM] | apparent KD of MS2 coat protein [2] [µM] | apparent KD of MS2 coat protein [3] [µM] | apparent KD of MS2 coat protein [4] [µM]
AAAUUAAGUGUGAGGAUAUGCUGGUCCUUGGAUCAGCAGAAGGCACAUGAGGAUCACCCAUGUAAUAUAUUUAA [Mat - Exclusion 4 - JL Mod - D49] (puzzle: Brourd's mod of Exclusion 4) | – | – | – | 0.0742 | 0.439 | 0.144
UAUUAGCAAGCAAGAUCCUACAUGAGGAUCACCCAUGUGCUCGUCUUAAGCCCAGAAUUACUGGGCGCUCGUCUUAU [Winner reversed engineered 21] (Eterna round: R97, puzzle: Sensor, turn-off variant 1) | 0.521 | – | 0.684 | – | – | –
ACAUGAGGAGAAGGAUAUCUUUAGAGGGUUACCAGAGAAGGUCUAACAUGAGGAUCACCCAUGUCAUGAGGGUCUUGAAUGUUG [10th something] (Eterna round: R96, puzzle: Exclusion NG 1) | 0.145 | 0.151 | 0.14 | – | – | –
ACAAGGAUGAAGGAUAUGGAAGAGUGGGAGCCUCCAGAAGGUCGUACAUGAGGAUCACCCAUGUAUUGGGCUUA [Eternabot (L2) Solution 38] (Eterna round: R97, puzzle: Exclusion 6) | 0.0225 | – | 0.021 | – | – | –
AACUCUGAGAAGGAUAUGGUACGGGAAAUGGUACCAGAAGGUUUCACAUGAGGAUCACCCAUGUCGAAUAGUGA [EX6 #68] (Eterna round: R97, puzzle: Exclusion 6) | 0.0288 | – | 0.0274 | – | – | –
AGAAAGCAAGGAUAUACAAGGAAACGACGGAAAGUAGAGAGACAUGAGGAUCACCCAUGUAGAAGGUGCGAGAA [JR_Exclu2_Sub032] (puzzle: Exclusion 2) | – | – | – | 0.0287 | 0.0338 | 0.0265
GUAGCUUCGGCUACUACAAGCUUUUUGCUCGUCUUAUUAACAUGAGGAUCACCCAUGUACAAGAGACCUCAUGUAUU [Sensor v3 - turn-off variant 2 - 13] (puzzle: Sensor v3, turn-off variant 2) | – | – | – | 0.0156 | 0.0904 | 0.146
GUUAAGGUAGGAUAUACGAUAAGAUAGGGUAGAUAUAUAACACAUGAGGAUCACCCAUGUAGAAGGACCAAUUG [Mat - Exclusion 2 - Mod of my Tesla design - D56] (puzzle: Exclusion 2) | – | – | – | 0.0292 | – | –
UGGUUGUCAGGAUAUACGGUUUUUAACUUUAGUUUUAUAUUGUAGAAGGGACAUGAGGAUCACCCAUGUUACGU [LRO-Excl4-11-Bluer Omei Mod] (Eterna round: R97, puzzle: Exclusion 4) | 0.0295 | – | 0.0265 | – | – | –
AGUACUAACAGCUGACUGUUAGUACUGUAGGUUUGUGUUACAUGAGGAUCACCCAUGUCCUCAUAGGCUCGUCUUGU [Mat - Sensor v3 - Turn-off var 2 - D97] (puzzle: Sensor v3, turn-off variant 2) | – | – | – | 0.1 | 0.291 | 0.284
GGUUGGCGAGGAUAUACAUGAGGAUCACCCAUGUGAGAAGAAAAAGUGAGGAAGAAAAGUAGAAGGCGCUGACG [Mat - Exclusion 3 - Mod of Salish D1] (puzzle: Exclusion 3) | – | – | – | 0.103 | 0.074 | 0.0815
AAUAACAAGCCGAUCCUAAACAUGAGGAUCACCCAUGUGCUCGUCUUGUAAAGUACUAUCACGAAAGUGAUAGUACA (Eterna round: R97, puzzle: Sensor, turn-off variant 1) | 0.0245 | – | 0.018 | – | – | –
GAUUAUGCGAGCUUUAGGGACAUGAGGAUCACCCAUGUUCGUCUUAUUGGUCUGAGUGCACUGACAUACCUAAAUCU [JMF 86] (puzzle: Sensor v3, turn-off variant 1) | – | – | – | 0.0309 | 0.0194 | 0.0199
AUAAAUCAUGUAGGAUAUGCGUGGCGAAGCUAUGCAGAAGGACAUGAGGAUCACCCAUGUGCUUCCGUCUGCGUACAGACGGUA [Mat - Exclusion NG 1 - Mod of JL - D10] (Eterna round: R96, puzzle: Exclusion NG 1) | 0.125 | 0.0776 | 0.142 | – | – | –
AACAGUACAGGAUAUACAUGAGGAUCACCCAUGUGAAGAAUAAGUGGAGUACCACAAAGUAGAAGGGUACUGGA [Ruby 88] (Eterna round: R96, puzzle: Exclusion 3) | – | 0.0215 | – | – | – | –
UUACGGCGGAUCGUGGCUUUUUGCUCGUCUUGUGCUACAACAUGAGGAUCACCCAUGUAGAGGUGAUCCGUUGUAUU [Grok-var2-19 mod JAL] (puzzle: Sensor v3, turn-off variant 2) | – | – | – | 0.0223 | 0.0924 | 0.12
GCACGGUAAGUGAGGAUAUACCUCUGGAUACAGAGGUAGAAGGCACAUGAGGAUCACCCAUGUCUAAACCGUGC [Fiskers BMX 4 - 82] (puzzle: Brourd's mod of Exclusion 4) | – | – | – | 0.0186 | 0.0249 | 0.018
